Experimental data published in article PMC11417369, “DNA sequence and chromatin differentiate sequence-specific transcription factor binding in the human malaria parasite Plasmodium falciparum”.

T1: AP2-LT D1 (Plasmodium falciparum, UniProt Q8IAM1 2520-2577)
T1 sequence: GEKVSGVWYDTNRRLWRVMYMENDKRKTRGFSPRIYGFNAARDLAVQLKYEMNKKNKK

T2: PF3D7_0420300 D1 (Plasmodium falciparum, UniProt Q8I1N6 1956-2015)
T2 sequence: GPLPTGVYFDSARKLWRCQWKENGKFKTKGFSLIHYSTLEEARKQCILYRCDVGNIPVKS

B1: CACACA_negctrl_site1031 (dsDNA)
DNA 1: ATTATTTGAACAACAAAAAAAAAGAAAAGAAAAGAA
DNA 2: TTCTTTTCTTTTCTTTTTTTTTGTTGTTCAAATAAT
B2: CACACA_negctrl_site1062 (dsDNA)
DNA 1: TTATATGCATCCAAAAAGGAATGTTTTTAGAGAATC
DNA 2: GATTCTCTAAAAACATTCCTTTTTGGATGCATATAA
B3: CACACA_negctrl_site908 (dsDNA)
DNA 1: TTATGGATGGACAATAATAAAATTTTTACTTTTATT
DNA 2: AATAAAAGTAAAAATTTTATTATTGTCCATCCATAA
B4: CACACA_negctrl_site1330 (dsDNA)
DNA 1: TAATAAATTCAAAACATAAAAAGGAAAAAAAAAAAA
DNA 2: TTTTTTTTTTTTCCTTTTTATGTTTTGAATTTATTA
B5: CACACA_negctrl_site982 (dsDNA)
DNA 1: ATTTTTTTTTTTTTTTTTTTTTTTTTTGAATTCACA
DNA 2: TGTGAATTCAAAAAAAAAAAAAAAAAAAAAAAAAAT
B6: CACACA_negctrl_site94 (dsDNA)
DNA 1: TTTTTTTTTTTTTTTTTTTTTTTCTACCTATTTATT
DNA 2: AATAAATAGGTAGAAAAAAAAAAAAAAAAAAAAAAA
B7: CACACA_negctrl_site1460 (dsDNA)
DNA 1: TATTTTACATAAAAGAAAAAAAAAAAAAAAAAAAAA
DNA 2: TTTTTTTTTTTTTTTTTTTTTCTTTTATGTAAAATA
B8: CACACA_site367 (dsDNA)
DNA 1: CACCCACCCAGACACACACACACACCCCCACCCATA
DNA 2: TATGGGTGGGGGTGTGTGTGTGTGTCTGGGTGGGTG
B9: CACACA_negctrl_site1417 (dsDNA)
DNA 1: AAAAATATTATGATGTTTATTAGAAAGGAAAAAACT
DNA 2: AGTTTTTTCCTTTCTAATAAACATCATAATATTTTT
B10: CACACA_negctrl_site97 (dsDNA)
DNA 1: AATAAAGGAAATAAATAATTTATTTTGTAAAATATG
DNA 2: CATATTTTACAAAATAAATTATTTATTTCCTTTATT
B11: CACACA_negctrl_site1356 (dsDNA)
DNA 1: TGTTTAACACATGTTTCAAACAAAAAAAAAAAGACA
DNA 2: TGTCTTTTTTTTTTTGTTTGAAACATGTGTTAAACA
B12: CACACA_negctrl_site1605 (dsDNA)
DNA 1: GTTTTTTTATAAAATTTTTATATAATTCTTTTATAA
DNA 2: TTATAAAAGAATTATATAAAAATTTTATAAAAAAAC
B13: CACACA_negctrl_site1631 (dsDNA)
DNA 1: TTTTAATTAAATACAAAAAAAAAAAAAAAAAAAAAA
DNA 2: TTTTTTTTTTTTTTTTTTTTTTGTATTTAATTAAAA
B14: CACACA_site7149 (dsDNA)
DNA 1: CCCCCCCACGAACACACACACATACATACCACATAT
DNA 2: ATATGTGGTATGTATGTGTGTGTGTTCGTGGGGGGG
B15: CACACA_negctrl_site1634 (dsDNA)
DNA 1: TTGGTAAATATATTTTGAATATAAGAAATATAGACG
DNA 2: CGTCTATATTTCTTATATTCAAAATATATTTACCAA
B16: CACACA_negctrl_site1475 (dsDNA)
DNA 1: AATGATTTTCAATCGAAATGAAACTTAGAAGATATA
DNA 2: TATATCTTCTAAGTTTCATTTCGATTGAAAATCATT
B17: CACACA_negctrl_site687 (dsDNA)
DNA 1: GTTAAACATCTTCTGTGATATGTTAGAATATTATTT
DNA 2: AAATAATATTCTAACATATCACAGAAGATGTTTAAC
B18: CACACA_negctrl_site1493 (dsDNA)
DNA 1: TGTTCTTATTTTATAAGCATATAATTAATCATAATG
DNA 2: CATTATGATTAATTATATGCTTATAAAATAAGAACA
B19: CACACA_negctrl_site338 (dsDNA)
DNA 1: TCGTCTCAATAATTATAATAAAAAAATTCCTAAGTC
DNA 2: GACTTAGGAATTTTTTTATTATAATTATTGAGACGA
B20: CACACA_negctrl_site996 (dsDNA)
DNA 1: GAAAAAAAAAAAAAAAAAAAAAGGAAAAAAGTGAAA
DNA 2: TTTCACTTTTTTCCTTTTTTTTTTTTTTTTTTTTTC
B21: CACACA_negctrl_site1268 (dsDNA)
DNA 1: ATATTTTTATGATGTATCCAAGAAATGGAACTATAT
DNA 2: ATATAGTTCCATTTCTTGGATACATCATAAAAATAT
B22: CACACA_negctrl_site43 (dsDNA)
DNA 1: TTCTTAATTCATACCATCAAAACATTTATTCATATC
DNA 2: GATATGAATAAATGTTTTGATGGTATGAATTAAGAA
B23: CACACA_negctrl_site847 (dsDNA)
DNA 1: TTTTAAAATAAAAAAATAAAAAAAGGGGAAAAAAAA
DNA 2: TTTTTTTTCCCCTTTTTTTATTTTTTTATTTTAAAA
B24: CACACA_negctrl_site1633 (dsDNA)
DNA 1: AAAAATTAAAATATAACTAATTAATTTGTATTCATT
DNA 2: AATGAATACAAATTAATTAGTTATATTTTAATTTTT
B25: CACACA_negctrl_site377 (dsDNA)
DNA 1: GTATAACAACTGATAAAAGAAAAAAAATTTATTATT
DNA 2: AATAATAAATTTTTTTTCTTTTATCAGTTGTTATAC
B26: CACACA_negctrl_site1412 (dsDNA)
DNA 1: TATATTTGGTTTCATTCATTTTTATAGAAATCTCAA
DNA 2: TTGAGATTTCTATAAAAATGAATGAAACCAAATATA
B27: CACACA_negctrl_site1518 (dsDNA)
DNA 1: AAGGGAAAATAATAAAAGAAAAAGAAAAAAAAAAAA
DNA 2: TTTTTTTTTTTTCTTTTTCTTTTATTATTTTCCCTT
B28: CACACA_negctrl_site1820 (dsDNA)
DNA 1: AGAATTGTTGTTAAAGAATTCTTTTTTATCCTTCCC
DNA 2: GGGAAGGATAAAAAAGAATTCTTTAACAACAATTCT
B29: CACACA_negctrl_site1656 (dsDNA)
DNA 1: TTTTGATCTGAAGGAACCTAAAAAGGGAAGAGAAAA
DNA 2: TTTTCTCTTCCCTTTTTAGGTTCCTTCAGATCAAAA
B30: CACACA_negctrl_site1157 (dsDNA)
DNA 1: TTTTTGTATTCTACCTTAACAATCTTAAAGATTTTT
DNA 2: AAAAATCTTTAAGATTGTTAAGGTAGAATACAAAAA
B31: CACACA_negctrl_site949 (dsDNA)
DNA 1: TATATATGGGTACTAATTCCTTTAATTTCTTTAATT
DNA 2: AATTAAAGAAATTAAAGGAATTAGTACCCATATATA
B32: CACACA_negctrl_site1333 (dsDNA)
DNA 1: AATTAAGTTAAACATTAAAAAAAACAAAAAATTAAA
DNA 2: TTTAATTTTTTGTTTTTTTTAATGTTTAACTTAATT
B33: CACACA_site3850 (dsDNA)
DNA 1: TAAAATAAAACAAACACACACACACCCCCACAAAAA
DNA 2: TTTTTGTGGGGGTGTGTGTGTGTTTGTTTTATTTTA
B34: CACACA_site2303 (dsDNA)
DNA 1: CATATTCCCCCCCACACACACACACCCATACATACC
DNA 2: GGTATGTATGGGTGTGTGTGTGTGGGGGGGAATATG
B35: CACACA_negctrl_site122 (dsDNA)
DNA 1: TCTGGATTGGATTACAAGAAAATAAAATATAAAATA
DNA 2: TATTTTATATTTTATTTTCTTGTAATCCAATCCAGA
B36: CACACA_negctrl_site1698 (dsDNA)
DNA 1: TTATAATAAAAAAATTCCTAAGTCCGTATATATTAT
DNA 2: ATAATATATACGGACTTAGGAATTTTTTTATTATAA
B37: CACACA_negctrl_site1516 (dsDNA)
DNA 1: TAACCAAAAAAAAATATTTAAAATAAATATATATAT
DNA 2: ATATATATATTTATTTTAAATATTTTTTTTTGGTTA
B38: CACACA_negctrl_site1708 (dsDNA)
DNA 1: AAAACTTTTTTAACAGAAAAATAGGGATACAATATA
DNA 2: TATATTGTATCCCTATTTTTCTGTTAAAAAAGTTTT
B39: CACACA_negctrl_site1682 (dsDNA)
DNA 1: TGTTATATCAATAATATATAATAATACCCTTCTTTT
DNA 2: AAAAGAAGGGTATTATTATATATTATTGATATAACA

Tests used:
AP2-LT D1 = biological target: T1, AP2-LT D1; experiment: gcPBM; about 25 ug protein; PBS, 1% milk, 0.2 mg/ml BSA, salmon testes DNA, 0.03% Triton X-100; conditions: tags: N-terminal GST (pGEX-4T-1), kept; label: surface-attached array probe
PF3D7_0420300 D1 = biological target: T2, PF3D7_0420300 D1; experiment: as above; conditions: tags: N-terminal GST (pGEX-4T-1), kept; label: surface-attached array probe

Row | Binder | binding signal (AP2-LT D1) | binding signal (PF3D7_0420300 D1)
1 | B1 | 8.83 ln median PBM intensity, better of two orientations | –
2 | B2 | 8.79 ln median PBM intensity, better of two orientations | –
3 | B3 | 8.82 ln median PBM intensity, better of two orientations | –
4 | B4 | 8.86 ln median PBM intensity, better of two orientations | –
5 | B5 | 8.8 ln median PBM intensity, better of two orientations | –
6 | B6 | 8.86 ln median PBM intensity, better of two orientations | –
7 | B7 | 8.54 ln median PBM intensity, better of two orientations | 8.27 ln median PBM intensity, better of two orientations
8 | B8 | 11 ln median PBM intensity, better of two orientations | 10.8 ln median PBM intensity, better of two orientations
9 | B9 | 8.85 ln median PBM intensity, better of two orientations | –
10 | B10 | 8.84 ln median PBM intensity, better of two orientations | –
11 | B11 | 8.88 ln median PBM intensity, better of two orientations | –
12 | B12 | 8.77 ln median PBM intensity, better of two orientations | –
13 | B13 | 8.41 ln median PBM intensity, better of two orientations | 8.08 ln median PBM intensity, better of two orientations
14 | B14 | 10.7 ln median PBM intensity, better of two orientations | 10.7 ln median PBM intensity, better of two orientations
15 | B15 | 8.87 ln median PBM intensity, better of two orientations | –
16 | B16 | 8.78 ln median PBM intensity, better of two orientations | –
17 | B17 | 8.83 ln median PBM intensity, better of two orientations | –
18 | B18 | 8.77 ln median PBM intensity, better of two orientations | –
19 | B19 | 8.78 ln median PBM intensity, better of two orientations | –
20 | B20 | 8.82 ln median PBM intensity, better of two orientations | –

Row | Binder | binding signal (AP2-LT D1) | binding signal (PF3D7_0420300 D1)
21 | B21 | 8.85 ln median PBM intensity, better of two orientations | –
22 | B22 | 8.88 ln median PBM intensity, better of two orientations | –
23 | B23 | 8.83 ln median PBM intensity, better of two orientations | –
24 | B24 | 8.76 ln median PBM intensity, better of two orientations | –
25 | B25 | 8.85 ln median PBM intensity, better of two orientations | –
26 | B26 | 8.84 ln median PBM intensity, better of two orientations | –
27 | B27 | 8.87 ln median PBM intensity, better of two orientations | –
28 | B28 | 8.88 ln median PBM intensity, better of two orientations | –
29 | B29 | 8.82 ln median PBM intensity, better of two orientations | –
30 | B30 | 8.8 ln median PBM intensity, better of two orientations | –
31 | B31 | 8.85 ln median PBM intensity, better of two orientations | –
32 | B32 | 8.76 ln median PBM intensity, better of two orientations | –
33 | B33 | 10.7 ln median PBM intensity, better of two orientations | 10.7 ln median PBM intensity, better of two orientations
34 | B34 | 10.8 ln median PBM intensity, better of two orientations | 11 ln median PBM intensity, better of two orientations
35 | B35 | 8.76 ln median PBM intensity, better of two orientations | –
36 | B36 | 8.75 ln median PBM intensity, better of two orientations | –
37 | B37 | 8.88 ln median PBM intensity, better of two orientations | –
38 | B38 | 8.86 ln median PBM intensity, better of two orientations | –
39 | B39 | 8.8 ln median PBM intensity, better of two orientations | –
